According to paper doi:10.1101/2022.11.10.516034 (bioRxiv, 2022):
Like-named read-outs stand apart in the source and are kept apart here.

Experiments:
[1] = target: the molecule itself; test: SEC
[2] = target: the molecule itself; test: SEC; remark: listed apart in the source

| Protein | stoichiometry N [1] | stoichiometry N [2] |
| --- | --- | --- |
| Twinkle C-terminal domain with linker (CTD, amino acids 360-684) (domain or fragment, human, UniProt Q96RR1 360-684, looked up) LPAWHKSIVSFRQLREEVLGELSNVEQAAGLRWSRFPDLNRILKGHRKGELTVFTGPTGSGKTTFISEYALDLCSQGVNTLWGSFEISNVRLARVMLTQFAEGRLEDQLDKYDHWADRFEDLPLYFMTFHGQQSIRTVIDTMQHAVYVYDICHVIIDNLQFMMGHEQLSTDRIAAQDYIIGVFRKFATDNNCHVTLVIHPRKEDDDKELQTASIFGSAKASQEADNVLILQDRKLVTGPGKRYLQVSKNRFDGDVGVFPLEFNKNSLTFSIPPKNKARLKKIKDDTGPVAKKPSSGKKGATTQNSEICSGQAPTPDQPDTSKRSK | ~12 subunit | – |
| full-length (FL) human Twinkle (aa 43-684) (enzyme, UniProt Q96RR1 43-684, looked up) ETLQALDMPVLPVTATEIRQYLRGHGIPFQDGHSCLRALSPFAESSQLKGQTGVTTSFSLFIDKTTGHFLCMTSLAEGSWEDFQASVEGRGDGAREGFLLSKAPEFEDSEEVRRIWNRAIPLWELPDQEEVQLADTMFGLTKVTDDTLKRFSVRYLRPARSLVFPWFSPGGSGLRGLKLLEAKCQGDGVSYEETTIPRPSAYHNLFGLPLISRRDAEVVLTSRELDSLALNQSTGLPTLTLPRGTTCLPPALLPYLEQFRRIVFWLGDDLRSWEAAKLFARKLNPKRCFLVRPGDQQPRPLEALNGGFNLSRILRTALPAWHKSIVSFRQLREEVLGELSNVEQAAGLRWSRFPDLNRILKGHRKGELTVFTGPTGSGKTTFISEYALDLCSQGVNTLWGSFEISNVRLARVMLTQFAEGRLEDQLDKYDHWADRFEDLPLYFMTFHGQQSIRTVIDTMQHAVYVYDICHVIIDNLQFMMGHEQLSTDRIAAQDYIIGVFRKFATDNNCHVTLVIHPRKEDDDKELQTASIFGSAKASQEADNVLILQDRKLVTGPGKRYLQVSKNRFDGDVGVFPLEFNKNSLTFSIPPKNKARLKKIKDDTGPVAKKPSSGKKGATTQNSEICSGQAPTPDQPDTSKRSK | – | ~7 |
